Test [1] has as its target T1, human C5a receptor (human, UniProt P21730 1-350).
T1 construct: On human neutrophils, L1.2/hC5aR transfectants or neutrophils of hC5aR knock-in mice; also called hC5aR; C5aR1
T1 chain: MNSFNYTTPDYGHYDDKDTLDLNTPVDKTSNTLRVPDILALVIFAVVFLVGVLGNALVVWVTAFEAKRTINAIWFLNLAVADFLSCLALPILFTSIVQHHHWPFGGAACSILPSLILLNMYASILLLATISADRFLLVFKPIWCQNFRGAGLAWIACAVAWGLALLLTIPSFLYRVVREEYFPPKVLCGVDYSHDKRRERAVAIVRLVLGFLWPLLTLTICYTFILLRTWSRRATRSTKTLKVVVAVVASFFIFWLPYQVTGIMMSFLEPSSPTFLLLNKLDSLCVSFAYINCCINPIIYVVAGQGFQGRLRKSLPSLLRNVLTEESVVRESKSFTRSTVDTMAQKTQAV
The experiment in a line: 125I-C5a displacement, L1.2/hC5aR transfectants. How it is done:
(§1) The ability of humanized Abs to inhibit ¹²⁵I-labelled C5a binding to L1.2 cells transfected with hC5aR gene or human neutrophils was tested as described below. Recombinant human C5a was obtained from Sigma Chemical Co. (St. Louis, Mo.). ¹²⁵I-Bolton-Hunter-labelled complement C5a was purchased from NEN-Dupont (Boston, Mass.), with a specific activity of 2200 Ci/mM. Briefly, L1.2/hC5aR stable transfectants were grown for several days prior to an experiment then treated overnight with 5 mM butyric acid to stimulate hC5aR expression prior to the binding assay. Human neutrophils were purified from venous blood collected from healthy volunteers. Neutrophils were separated from other leukocytes by percoll density centrifugation followed by a red blood cell lysis step. Both cell types were washed once in PBS and resuspended in binding buffer (50 mM Hepes, pH 7.5, 1 mM CaCl₂, 5 mM MgCl₂, 0.5% BSA) at a concentration of 1×10⁷/ml. Aliquots of 40 μl (4×10⁵ cells) were dispensed into 96 well microtitre plates, followed by the addition of cold competitor (antibody or human C5a). Cells and cold competitor were incubated for 15 min at room temperature before-radiolabelled C5a was added to a final concentration of 0.4 nM. The final reaction volume was 120 μl. After 60 min incubation at room temperature, the cells were washed three times with 150 μl of binding buffer containing 0.15 M NaCl. Cell pellets were then counted on a TopCount Scintillation Counter (Packard). Samples were assayed in triplicate at each of 6-8 concentrations. Each antibody was tested in at least 3 separate assays. The number of counts in each sample was expressed as a percentage of the maximum ¹²⁵I-C5a binding observed in wells with no added cold competitor after subtraction of background.
(§2) Results of this analysis (the displacement curves) for each of the humanized antibodies compared to the mouse antibody 7F3 in human neutrophils and L1.2/hC5aR transfectants are given in FIGS. 11 and 12 respectively. […] These values were obtained using Graphpad Prism software fitting the data to the non-linear equation for one site competition.

Test [2] concerns the target T1, human C5a receptor. Put plainly: cell-based or functional assay.
The target of test [3] is T1, human C5a receptor. Put plainly: 125I-C5a displacement, human neutrophils. Here is the method: as §1, §2
Test [4] addresses T1, human C5a receptor. The experiment in a line: cell-based or functional assay.
For test [5], the target named is T1, human C5a receptor. The experiment in a line: 125I-C5a displacement by cold C5a, human neutrophils.
Test [6] concerns the target T1, human C5a receptor. The experiment in a line: saturation binding to human neutrophils at 4 C, flow cytometry. How it is done: Human neutrophils, isolated as described above, were resuspended in dPBS and 1×10⁵ cells (in 25 μl) were dispensed into wells of a 96-well plate. An equal volume (25 μl) of 2× antibody (diluted in PBS) was added to each well. The final antibody concentration using 2-fold serial dilution ranged from 40 to 0 ug/ml (using unlabelled hAb-Q, hAb-J and 7F3). Cells and antibody were incubated for 20 min times at 4° C. After incubation, 100 μl PBS+1% BCS was added to each well and the plate centrifuged at 2,000 rpm for 3 min. […] The cells were washed once as above and resuspended in PBS+1% FCS for analysis by flow cytometry. FSC v SSC scatter was used to identify neutrophils, with the Median Fluorescence Intensity (MFI) determined for each sample. EC50 values were determined by fitting data (MFI—background vs log₁₀[antibody concentration]) to the sigmoidal dose-response (variable slope) i.e. 4-parameter logistic equation using GraphPad Prism (v4.0) software. Bₘₐₓ and KD were determined by fitting data to the one-site binding hyperbola equation.
(A flow cytometer gives signals particle by particle.)

The values below come from patent US20110190477A1 (G2 INFLAMMATION, published 2011).

Positions count from the first letter of the chain named. Several values for one entry are separate records, joined by “and”; a condition that tells them apart may be missing. Identical values can stand only once.

B1: humanized anti-C5aR antibody hAb-A (antibody, human IgG4, kappa, V domains shown)
VH: QVQLVQSGAEVKKPGASVKISCKASGYAFSNSWMNWVRQAPGKGLEWMGRIYPGDGDTKYNGKFKGRVTITADESTSTAYMELSSLRSEDSAVYFCARFLLISTVTAVDYWGQGTTVTVSS
VL: DVVMTQSPLSLPVTLGEPASISCRSSQSLVHSNGNTYLHWYLQKPGQSPQLLIYKVSNRFSGVPDRFSGSGSGTDFTLKISRVEAEDVGVYFCSQSTLVPLTFGQGTKLEIKT
notes: also called antibody A
In general, EC50 refers to the concentration that produces a half-maximal response. A high value points to lower potency in that assay. In test [1], B1 had an EC50 of 2.78 nM.

B2: humanized anti-C5aR antibody hAb-K (antibody, human IgG4 S228P, kappa, V domains shown)
VH: B1 VH with I20V, K43Q, I70M, E74T, A79V, S91T, F95Y, T116L
VL: B1 VL with S7T, E17Q, Y41C, F92Y
In the case of B2, the “blocking of human neutrophil migration towards C5a at 5 µg/ml antibody” value (from here on “blocking … at 5 µg/ml antibody”) in test [2] was determined as 55%.

B3: humanized anti-C5aR antibody hAb-F (antibody, human IgG4 S228P, kappa)
light: DVVMTQSPLSLPVTLGQPASISCRSSQSLVHSNGNTYLHWFQQRPGQSPRLLIYKVSNRFSGVPDRFSGSGSGTDFTLKISRVEAEDVGVYYCSQSTLVPLTFGGGTKLEIKTVAAPSVFIFPPSDEQLKSGTASVVCLLNNFYPREAKVQWKVDNALQSGNSQESVTEQDSKDSTYSLSSTLTLSKADYEKHKVYACEVTHQGLSSPVTKSFNRGEC
heavy: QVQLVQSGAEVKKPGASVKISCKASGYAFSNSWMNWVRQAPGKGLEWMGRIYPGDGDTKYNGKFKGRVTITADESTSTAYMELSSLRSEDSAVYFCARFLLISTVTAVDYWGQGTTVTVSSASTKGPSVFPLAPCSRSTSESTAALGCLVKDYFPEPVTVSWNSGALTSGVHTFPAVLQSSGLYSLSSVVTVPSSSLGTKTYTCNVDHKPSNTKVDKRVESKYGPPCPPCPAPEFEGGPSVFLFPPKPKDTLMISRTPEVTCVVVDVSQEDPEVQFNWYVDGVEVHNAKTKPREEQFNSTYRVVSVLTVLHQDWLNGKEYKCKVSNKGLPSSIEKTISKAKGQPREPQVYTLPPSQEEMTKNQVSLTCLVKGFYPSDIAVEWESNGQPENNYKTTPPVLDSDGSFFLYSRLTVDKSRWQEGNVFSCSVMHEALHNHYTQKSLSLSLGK
notes: also called antibody F
With B3, the EC50 in test [1] was determined as 1.26 nM; in test [3], 2.55 nM. Besides, in test [4], the “Ab conc. tested but not effective at blocking Ca2+-flux (human neutrophils, 1 nM C5a)” value is 10 µg/mL.

B4: humanized anti-C5aR antibody hAb-M (antibody, human IgG4, kappa)
light: B3 light with Q17E, F41Y, Q42L, R44K, R50Q, Y92F, G105Q
heavy: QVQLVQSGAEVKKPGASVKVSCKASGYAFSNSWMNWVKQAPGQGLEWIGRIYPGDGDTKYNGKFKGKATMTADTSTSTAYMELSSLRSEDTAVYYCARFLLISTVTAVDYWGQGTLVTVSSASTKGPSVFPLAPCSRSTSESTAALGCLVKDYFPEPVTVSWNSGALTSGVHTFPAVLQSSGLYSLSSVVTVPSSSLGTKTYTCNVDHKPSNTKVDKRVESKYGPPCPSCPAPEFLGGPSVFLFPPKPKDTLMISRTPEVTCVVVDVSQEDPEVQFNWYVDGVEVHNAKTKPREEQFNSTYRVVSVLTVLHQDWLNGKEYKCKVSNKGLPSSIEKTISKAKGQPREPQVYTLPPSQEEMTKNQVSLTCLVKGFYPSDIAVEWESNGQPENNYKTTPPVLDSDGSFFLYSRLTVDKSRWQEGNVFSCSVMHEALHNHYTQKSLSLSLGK
notes: also called antibody M
For the molecule B4, the EC50 in test [1] turned out to be 0.95 nM; in test [3] it was 4.05 nM. In addition, the “Ab conc. effective at blocking C5a-induced Ca2+-flux (human neutrophils, 1 nM C5a)” value (shortened to “Ab conc. effective”) in test [4] is 30 µg/mL.

B5: humanized anti-C5aR antibody hAb-C (antibody, human IgG4, kappa)
light: B3 light
heavy: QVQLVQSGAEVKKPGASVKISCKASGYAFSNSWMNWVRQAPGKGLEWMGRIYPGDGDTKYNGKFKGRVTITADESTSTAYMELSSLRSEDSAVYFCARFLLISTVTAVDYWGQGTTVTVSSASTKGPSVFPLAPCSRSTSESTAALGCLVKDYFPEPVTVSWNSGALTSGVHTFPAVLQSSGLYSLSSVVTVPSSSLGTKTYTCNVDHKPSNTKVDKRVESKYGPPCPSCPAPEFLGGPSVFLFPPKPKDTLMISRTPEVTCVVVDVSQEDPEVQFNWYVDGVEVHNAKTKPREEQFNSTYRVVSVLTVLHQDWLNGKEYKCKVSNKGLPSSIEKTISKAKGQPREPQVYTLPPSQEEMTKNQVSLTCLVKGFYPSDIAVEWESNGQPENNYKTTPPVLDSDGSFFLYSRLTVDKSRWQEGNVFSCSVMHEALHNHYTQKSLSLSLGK
notes: also called antibody C
Consider B5, for which the EC50 in test [1] turned out to be 0.9 nM; in test [3], 2.48 nM. Also, the “blocking … at 5 µg/ml antibody” value in test [2] was 75%.

B6: human C5a (ligand, UniProt P01031 678-751, looked up)
chain: TLQKKIEEIAAKYKHSVVKKCCYDGACVNNDETCEQRAARISLGPRCIKAFTECCVVASQLRANISHKDMQLGR
modifications: tracer form: 125I-Bolton-Hunter label
notes: C5a is a fragment of it; also called hC5a; recombinant human C5a
For B6, a half-maximal effect in test [5] (EC50) was put at 0.5 nM.

B7: humanized anti-C5aR antibody hAb-G (antibody, human IgG4 S228P, kappa)
light: B3 light with Q17E, F41Y, Q42L, R44K, R50Q, Y92F, G105Q
heavy: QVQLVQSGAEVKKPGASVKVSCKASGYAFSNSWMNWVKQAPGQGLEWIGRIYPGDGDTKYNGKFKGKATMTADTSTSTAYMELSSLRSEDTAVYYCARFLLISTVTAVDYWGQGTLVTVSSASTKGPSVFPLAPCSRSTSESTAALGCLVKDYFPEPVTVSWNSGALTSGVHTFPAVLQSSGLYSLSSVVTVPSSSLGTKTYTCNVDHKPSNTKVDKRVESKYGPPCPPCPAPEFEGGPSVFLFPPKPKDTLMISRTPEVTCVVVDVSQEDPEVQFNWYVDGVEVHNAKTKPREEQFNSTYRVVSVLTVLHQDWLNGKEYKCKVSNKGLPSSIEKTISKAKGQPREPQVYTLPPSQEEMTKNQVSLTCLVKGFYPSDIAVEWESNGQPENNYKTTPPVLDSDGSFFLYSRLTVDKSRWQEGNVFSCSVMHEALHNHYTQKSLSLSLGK
notes: also called antibody G
Turning to B7, the EC50 in test [1] was 1.53 nM; in test [3], 3.52 nM. Also, the “Ab conc. effective” value in test [4] is 30 µg/mL. Further, the “blocking … at 5 µg/ml antibody” value in test [2] is 84%.

B8: humanized anti-C5aR antibody hAb-N (antibody, human IgG1, kappa)
light: B3 light with Q17E, F41Y, Q42L, R44K, R50Q, Y92F, G105Q
heavy: not shown
notes: IgG1; also called antibody N
B8: the EC50 was 1.03 nM in test [1]; 20 nM to 25 nM (2×) and ~3 µg/mL in test [6]; 0.65 nM in test [3]. For the same molecule, the Kd in test [6] is 20 nM to 25 nM (2×) and ~3 µg/mL. In test [4], the “Ab conc. tested but not effective at blocking Ca2+-flux (human neutrophils, 1 nM C5a)” value was found to be 0.01 µg/mL.

B9: humanized anti-C5aR antibody hAb-O (antibody, human IgG1, kappa)
light: B3 light
heavy: not shown
notes: IgG1; also called antibody O
With B9, the EC50 stood at 0.68 nM in test [1] and 0.48 nM in test [3]. Also, the “Ab conc. effective” value in test [4] is 10 µg/mL.

B10: humanized anti-C5aR antibody hAb-S (antibody, human IgG4 S228P, kappa)
light: DVVMTQSPLSLPVTLGEPASISCRSSQSLVHSNGNTYLHWYLQKPGQSPQLLIYKVSNRFSGVPDRFSGSGSGTDFTLKISRVEAEDVGVYFCSQSTLVPLTFGQGTKLEIKRTVAAPSVFIFPPSDEQLKSGTASVVCLLNNFYPREAKVQWKVDNALQSGNSQESVTEQDSKDSTYSLSSTLTLSKADYEKHKVYACEVTHQGLSSPVTKSFNRGEC
heavy: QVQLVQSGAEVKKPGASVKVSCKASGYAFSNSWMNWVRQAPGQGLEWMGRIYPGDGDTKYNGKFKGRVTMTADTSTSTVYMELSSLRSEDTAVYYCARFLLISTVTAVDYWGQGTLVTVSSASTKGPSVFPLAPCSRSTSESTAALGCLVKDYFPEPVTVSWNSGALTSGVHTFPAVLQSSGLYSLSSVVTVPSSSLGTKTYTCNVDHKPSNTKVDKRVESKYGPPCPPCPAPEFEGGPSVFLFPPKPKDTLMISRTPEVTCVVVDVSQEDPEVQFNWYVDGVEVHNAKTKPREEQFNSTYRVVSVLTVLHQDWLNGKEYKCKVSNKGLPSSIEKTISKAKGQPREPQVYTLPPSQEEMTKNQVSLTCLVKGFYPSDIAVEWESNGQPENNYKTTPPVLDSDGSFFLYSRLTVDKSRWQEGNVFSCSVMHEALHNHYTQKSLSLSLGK
notes: also called antibody S
B10: the EC50 in test [3] is 2.69 nM.
